Laboratory results published in US20210292393A1 (published 2021).
Positions count from the first letter of the chain named.

B1: antibody 300 (antibody, V domains shown)
VH: QVQLVESGGGVVQPGRSLTLSCAASGFTFSSYAMHWVRQAPGKGLEWVALISYDGNNKYYADSVKGRFTFSRDNSKNTLYLQMNSLRAEDTAVYYCARTNSGSYRTAFDYWGQGTLVTVSS
VL: DIQMTQSPSTLSASVGDRVTITCRASQSISIWLAWYQQKPGKAPKLLIYKASSLESGVPSRFSGSGSGTEFTLTISSLQPDDFATYYCQQYNSLWTFGQGTKVEIK
B2: antibody 265 (antibody, V domains shown)
VH: EVQLVQSGAEVKKPGATVKVSCKFSGDTFSHYYIHWVQQAPGKGLEWMGLVDPQDGESEYAQKFQGKVTITADTSIDTSYLEVTSLRFDDTAFYFCATRGMSGAFDRWGQGTLVTVSS
VL: DIVMTQSPDSLAVSLGERATINCKSSQSILSTSNNKNYLAWYQQKPGQPPKLLIYWASTRESGVPDRFSGGGSGTDFTLTISSLQAEDVAVYYCQQYYRTAYTTPIYTFGQGTKLEIK
B3: antibody 281 (antibody, V domains shown)
VH: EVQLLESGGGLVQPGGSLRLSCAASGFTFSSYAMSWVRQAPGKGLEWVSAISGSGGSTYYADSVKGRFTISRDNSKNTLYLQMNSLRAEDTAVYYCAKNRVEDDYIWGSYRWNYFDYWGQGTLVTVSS
VL: QSALTQPASVSGSPGQSITISCTGTSSDVGSYNLVSWYQQHPGKAPKLMIYEVSKRPSGVSNRFSGSKSGNTASLTISGLQAEDEADYYCCSYAGSSTHVVFGGGTKLTVL
B4: antibody 273 (antibody, V domains shown)
VH: QVQLVQSGAEVKKPGASVKVSCKVSGYTLTELSMHWVRQAPGKGLEWMGGFDPEDGETIYAQKFQGRVTMTEDTSTDTAYMELSSLRSEDTAVYYCATAPGYYDSSAPQPINWFDPWGQGTLVTVSS
VL: QSALTQPASVSGSPGQSITISCTGTSSDVGSYNLVSWYQQHPGKAPKLMIYEVSKRPSGVSNRFSGSKSGNTASLTISGLQAEDEADYYCCSYAGSSTLVFGGGTKLTVL
B5: antibody 276 (antibody, V domains shown)
VH: QVQLQESGPGLVKPSQTLSLTCTVSGDSISSGGYYWSWIRQHPGKGLEWIGYIYYSGSAYYNPSLKSRVTISLDTSKNQFSLKLSSVTAADTAVYYCARDSVAGFSIFDYWGQGTLVTVSS
VL: SSELTQDPAVSVALGQTVRITCQGDSLRSYYASWYQQKPGQAPVRVIYGKNNRPSGIPDRFSGSSSGNTASLTITGAQAEDEADYYCNSWDSSGNHVVFGGGTKLTVL
B6: antibody 266 (antibody, V domains shown)
VH: QVQLVESGGGVVQPGRSLRLSCAASGFNLSNYAMHWVRQPSGKGLEWVSLISYDGSIKYYTDSVKGRFTVSGDNSKNTLFLQMNSLRPDDSALYYCVRGGVSGPNSFDMWGQGTTVTVSS
VL: DVVMTQSPLSLPVTLGQPASISCRSSQSLVYSDGNTYVNWFQQRPGQSPRRLIYQVSIRASGVPDRFSGSGSGTDFALKISRVEAEDVGVYYCMQGTHWPVTFGQGTKVEIK
B7: antibody 303 (antibody, V domains shown)
VH: B6 VH with N31S, P40A, T61A, T78M, P88A, S106A, M109I
VL: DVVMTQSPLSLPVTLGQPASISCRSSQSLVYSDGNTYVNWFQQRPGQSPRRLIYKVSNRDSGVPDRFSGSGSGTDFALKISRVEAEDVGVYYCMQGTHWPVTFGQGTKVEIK
B8: antibody 295 (antibody, V domains shown)
VH: QVQLQESGPGLVKPSQTLSLTCTVSGGSISSSDYYWSWIRQPPGKGLEWIGYIYYSGSTYYNPSLKSRVTISVDTSKNQFSLKLSSVTAADTAVYYCARVVGYCSSTSCYVDYWGQGTLVTVSS
VL: EIVLTQSPATLSLSPGERVTLSCRASQSVSSYLAWYQQKPGQAPRLLIYDASNRATGIPARFSGSGSGTDFTLTISSLEPEDFAVYYCQQRSNWPPGLTFGGGTKVEIK
B9: antibody 284 (antibody, V domains shown)
VH: QVTLRESGPALVKPTQTLTLTCTFSGFSLSTSGMCVSWIRQPPGKALEWLALIDWDDDKYYSTSLKTRLTISKDTSKNQVVLTMTNMDPVDTATYYCARTSGYSSSWPSFDYWGQGTLVTVSS
VL: not shown
B10: antibody 288 (antibody, V domains shown)
VH: EVQLVESGGGLVQPGGSLRLSCAASGFTFSSYDMHWVRQATGKGLEWVSAIGTAGDTYYPGSVKGRFTISRENAKNSLYLQMNSLRAGDTAVYYCARGANRDYDILTGYYSYYYYGMDVWGQGTTVTVSS
VL: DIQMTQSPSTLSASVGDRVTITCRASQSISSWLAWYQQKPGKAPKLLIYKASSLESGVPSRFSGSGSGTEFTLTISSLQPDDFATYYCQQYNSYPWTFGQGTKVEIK
B11: antibody 294 (antibody, V domains shown)
VH: EVQLVESGGGLVQPGGSLRLSCAASGFTVSSNYMNWVRQAPGKGLEWVSVIYSGGSTYYADSVKGRFTISRDNSKNTLYLQMNSLRAEDTAVYYCARDLGPSGMDVWGQGTTVTVSS
VL: DIQMTQSPSSVSASVGDRVTITCRASQGISSWLAWYQQKPGKAPKLLIYAASSLQSGVPSRFSGSGSGTDFTLTISSLQPEDFATYYCQQANSFPLFGGGTKVEIK
B12: antibody 301 (antibody, V domains shown)
VH: QVQLVQSGAEVKKPGASVKVSCKVSGYTLTELSMHWVRQAPGKGLEWMGGFDPEDGETIYAQKFQGRVTMTEDTSTDTAYMELSSLRSEDTAVYYCATAFCGGDCYPPDALDIWGQGTMVTVSS
VL: DIQMTQSPSSVSASVGDRVTITCRASQGISSWLAWYQQKPGKAPKLLIYAASSLQSGVPSRFSGSGSGTDFTLTISSLQPEDFATYYCQQANSFPLTFGGGTKVEIK
B13: antibody 475 (antibody, V domains shown)
VH: QVQLVESGGGVVQPGRSLRLSCAASGFTFSSYAMHWVRQAPGKGLEWVTFISHEGSNKYYADSVKGRFTISRDNSKNTLYLQMNSLRAEDTAVYYCARTFEYSSSSATGDFDYWGQGTLVTVSS
VL: QSVLTQPPSVSGAPGQRVTISCTGSSSNIGAGYDVHWYQQLPGTAPKLLIYGNSNRPSGVPDRFSGSKSGTSASLAITGLQAEDEADYYCQSYDSSLSGVVFGGGTKLTVL
B14: antibody 480 (antibody, V domains shown)
VH: B1 VH with T19R, L50V, F70I, A97V, R105Y, T106A
VL: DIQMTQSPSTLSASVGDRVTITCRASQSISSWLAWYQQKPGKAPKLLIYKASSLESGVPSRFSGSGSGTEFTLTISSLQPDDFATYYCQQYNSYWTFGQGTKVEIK
B15: antibody 476 (antibody, V domains shown)
VH: QVQLVQSGSELKKPGASVKVSCKASGYTFTSYAMNWVRQAPGQGLEWMGWINTNTGNPTYAQGFTGRFVFSLDTSVSTAYLQISSLKAEDTGVYYCARDHELPNSSSWFGHFEYWGQGTLVTVSS
VL: SYELTQPPSVSVSPGQTARITCSGDALPKQYAYWYQQKAGQAPVLVIYKDSERRSGIPERFSGSSSGTTVTLTISGVQAEDEADYYCQSADSSGTSVVFGGGTKLTVL
B16: antibody 471 (antibody, V domains shown)
VH: QVQLVESGGGVVQPGRSLRLSCAASGFTFSSYAMHWVRQAPGKGLEWVAVISYDGSNKYYADSVKGRFTISRDNSKNTLYLQMNSLRAEDTAVYYCAKQYSPYCSGGSCYSGASDYWGQGTLVTVSS
VL: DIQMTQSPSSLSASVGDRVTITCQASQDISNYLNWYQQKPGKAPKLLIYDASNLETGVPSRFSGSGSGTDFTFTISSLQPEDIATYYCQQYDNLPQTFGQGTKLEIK
B17: antibody 470 (antibody, V domains shown)
VH: not shown
VL: B4 VL
B18: antibody 496 (antibody, V domains shown)
VH: QVQLVQSGAEVKKPGASVKVSCKASGYTFTDYYIHWVRQAPGQGLEWMGWINPNSGGTNYAQKFQGRLTMTRDTSISTAYMELSRLRSDDTAVYYCARVYSMFREFIINPYYYYYGLDVWGQGTTVTVSS
VL: B4 VL with G15R, V53G, T76A, D87N
B19: antibody 504 (antibody, V domains shown)
VH: QVQLVESGGGVVQPGRSLRLSCAASGFTFSSYGMHWVRQAPGKGLEWVAVISYDGSNKYYADSVKGRFTISRDNSKNTLYLQMNSLRAEDTAVYYCAKGGGGGYCSGGSCYSHYFDYWGQGTLVTVSS
VL: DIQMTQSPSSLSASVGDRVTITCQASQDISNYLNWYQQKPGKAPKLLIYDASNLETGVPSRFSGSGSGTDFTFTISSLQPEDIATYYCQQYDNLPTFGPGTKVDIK
B20: antibody 477 (antibody, V domains shown)
VH: QVQLVESGGGVVQPGRSLRLSCAASGITFSSYAMHWVRQAPGKGLEWVAVISYDGSDKYHADSVKGRFAISRDNSKNTLYLQMNSLRAEDTAVYYCAKDKGIAVAGTGWIRPDPEYYFDYWGQGTLVTVSS
VL: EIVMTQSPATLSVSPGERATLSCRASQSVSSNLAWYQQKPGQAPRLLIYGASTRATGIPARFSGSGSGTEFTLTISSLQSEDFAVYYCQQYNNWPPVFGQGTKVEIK
B21: antibody 492 (antibody, V domains shown)
VH: QVQLVESGGGVVQPGRSLRLSCAASGFTFSSYGMHWVRQAPGKGLEWVAVISYDGSNKYYADSVKGRFTISRDNSKNTLYLQMNSLRAEDTAVYYCAKDGILWWWWGYFDYWGQGTLVTVSS
VL: QSVLTQPPSVSGAPGQRVTISCTGSSSNIGAGFDVHWYQQLPGTAPKLLIYGNSNRPSGVPDRFSGSKSGTSASLAITGLQAEDEADYYCQSYDSSLSVVFGGGTKLTVL
B22: antibody 497 (antibody, V domains shown)
VH: QVQLQESGPGLVKPSQTLSLTCTVSGGSINSFGYYWSWIRQHPGKGLEWIGYIYYSGSTDYNPSLNSRVTISLDTSKNQFLLKLTSVTAADTAVYYCAKLTDYYDSSGYSFDYWGQGTLVTVSS
VL: B12 VL with G28D, S31R, S65R, D70E, F71L, Y87F, N92Y, L96F
B23: antibody 474 (antibody, V domains shown)
VH: EVQLVESGGGLVQPGGSLRLSCAASGFTFSSYWMHWVRQAPGKGLVWVSRINSDGSSTSYADSVKGRFTISRDNAKNTLYRQMNSLRAEDTAVYYCALGPLDIVGSYYYYGMDVWGQGTTVTVSS
VL: NFMLTQPHSVSESPGKTVTISCTGSSGSIASNYVQWYQQRPGSAPTTVIYEDNQRPSGVPDRFSGSIDSSSNSASLTISGLKTEDEADYYCQSYDSSNQDVVFGGGTKLTVL

Target: SARS-CoV-2 full length spike protein, V483A mutant (SARS-CoV-2, UniProt P0DTC2 14-1273)

Binder | median fluorescence intensity, fold over isotype control [fold over isotype]
B1 | 10.2
B2 | 14.5
B3 | 20.3
B4 | 16
B5 | 11.1
B6 | 10.8
B7 | 10
B8 | 9.93
B9 | 22
B10 | 18.7
B11 | 18.4
B12 | 21.3

Target: SARS-CoV-2 full length spike protein, V483A mutant, expressed on CHO cells (SARS-CoV-2, UniProt P0DTC2 14-1273)

Binder | median fluorescence intensity, fold over isotype control [fold over isotype]
B13 | 20.2
B14 | 10.7
B15 | 14.1
B16 | 2.75
B17 | 7.63
B18 | 12.6
B19 | 2.47
B20 | 23.9
B21 | 7.71
B22 | 22.2
B23 | 1.05
